# PMC12358912
# Experiments:
# [1] = molecular target: cohesin Trimer (SMC1/SMC3/SCC1);STAG1 (human;human) (UniProt Q14683+Q9UQE7+O60216+Q8WVM7); test: mass photometry; details: typically 150 nM protein + 150 nM DNA, then diluted (10-fold for NIPBL), phosphate buffer (HEPES for MC604 repeat), 50 mM NaCl for ATP …
# [2] = molecular target: T1, STAG1 (human) (UniProt Q8WVM7); test: mass photometry; details: typically 150 nM protein + 150 nM DNA, then diluted (10-fold for NIPBL), phosphate buffer (HEPES for MC604 repeat), 50 mM NaCl for ATP …
# T1 sequence: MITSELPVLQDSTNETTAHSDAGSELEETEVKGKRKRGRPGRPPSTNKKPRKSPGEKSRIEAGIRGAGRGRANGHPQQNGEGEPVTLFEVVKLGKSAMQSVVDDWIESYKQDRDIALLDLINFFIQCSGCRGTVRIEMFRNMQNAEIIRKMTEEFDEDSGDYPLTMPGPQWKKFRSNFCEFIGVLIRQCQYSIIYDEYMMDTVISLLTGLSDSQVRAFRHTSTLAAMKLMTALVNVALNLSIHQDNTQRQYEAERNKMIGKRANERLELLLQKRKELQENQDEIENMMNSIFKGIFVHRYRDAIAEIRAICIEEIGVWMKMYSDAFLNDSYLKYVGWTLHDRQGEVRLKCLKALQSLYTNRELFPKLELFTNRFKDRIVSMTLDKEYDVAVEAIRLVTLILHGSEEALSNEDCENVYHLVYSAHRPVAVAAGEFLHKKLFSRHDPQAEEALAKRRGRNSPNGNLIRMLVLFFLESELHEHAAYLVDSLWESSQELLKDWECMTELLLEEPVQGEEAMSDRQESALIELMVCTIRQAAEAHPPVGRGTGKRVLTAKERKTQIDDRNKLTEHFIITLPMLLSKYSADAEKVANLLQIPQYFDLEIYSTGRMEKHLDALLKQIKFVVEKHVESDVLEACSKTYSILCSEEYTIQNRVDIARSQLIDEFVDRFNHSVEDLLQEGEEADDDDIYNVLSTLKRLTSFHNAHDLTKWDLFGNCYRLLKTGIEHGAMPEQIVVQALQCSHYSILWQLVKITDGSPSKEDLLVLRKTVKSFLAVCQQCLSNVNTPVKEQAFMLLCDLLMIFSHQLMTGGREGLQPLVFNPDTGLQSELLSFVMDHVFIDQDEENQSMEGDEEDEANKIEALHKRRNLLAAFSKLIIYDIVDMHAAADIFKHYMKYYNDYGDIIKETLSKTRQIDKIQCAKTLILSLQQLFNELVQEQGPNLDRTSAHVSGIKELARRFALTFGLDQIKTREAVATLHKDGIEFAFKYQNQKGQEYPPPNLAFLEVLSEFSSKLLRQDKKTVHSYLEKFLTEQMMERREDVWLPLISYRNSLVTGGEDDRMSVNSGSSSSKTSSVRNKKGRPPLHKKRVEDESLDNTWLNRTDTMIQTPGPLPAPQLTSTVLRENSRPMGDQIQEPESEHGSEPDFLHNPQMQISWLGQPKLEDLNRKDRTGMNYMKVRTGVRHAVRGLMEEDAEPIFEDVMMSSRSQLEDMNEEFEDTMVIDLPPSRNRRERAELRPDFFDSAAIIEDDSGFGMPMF
# [3] = molecular target: NIPBL (human) (UniProt Q6KC79); test: mass photometry; details: typically 150 nM protein + 150 nM DNA, then diluted (10-fold for NIPBL), phosphate buffer (HEPES for MC604 repeat), 50 mM NaCl for ATP …
# Sequence of NIPBL (human) (Q6KC79 whole entry): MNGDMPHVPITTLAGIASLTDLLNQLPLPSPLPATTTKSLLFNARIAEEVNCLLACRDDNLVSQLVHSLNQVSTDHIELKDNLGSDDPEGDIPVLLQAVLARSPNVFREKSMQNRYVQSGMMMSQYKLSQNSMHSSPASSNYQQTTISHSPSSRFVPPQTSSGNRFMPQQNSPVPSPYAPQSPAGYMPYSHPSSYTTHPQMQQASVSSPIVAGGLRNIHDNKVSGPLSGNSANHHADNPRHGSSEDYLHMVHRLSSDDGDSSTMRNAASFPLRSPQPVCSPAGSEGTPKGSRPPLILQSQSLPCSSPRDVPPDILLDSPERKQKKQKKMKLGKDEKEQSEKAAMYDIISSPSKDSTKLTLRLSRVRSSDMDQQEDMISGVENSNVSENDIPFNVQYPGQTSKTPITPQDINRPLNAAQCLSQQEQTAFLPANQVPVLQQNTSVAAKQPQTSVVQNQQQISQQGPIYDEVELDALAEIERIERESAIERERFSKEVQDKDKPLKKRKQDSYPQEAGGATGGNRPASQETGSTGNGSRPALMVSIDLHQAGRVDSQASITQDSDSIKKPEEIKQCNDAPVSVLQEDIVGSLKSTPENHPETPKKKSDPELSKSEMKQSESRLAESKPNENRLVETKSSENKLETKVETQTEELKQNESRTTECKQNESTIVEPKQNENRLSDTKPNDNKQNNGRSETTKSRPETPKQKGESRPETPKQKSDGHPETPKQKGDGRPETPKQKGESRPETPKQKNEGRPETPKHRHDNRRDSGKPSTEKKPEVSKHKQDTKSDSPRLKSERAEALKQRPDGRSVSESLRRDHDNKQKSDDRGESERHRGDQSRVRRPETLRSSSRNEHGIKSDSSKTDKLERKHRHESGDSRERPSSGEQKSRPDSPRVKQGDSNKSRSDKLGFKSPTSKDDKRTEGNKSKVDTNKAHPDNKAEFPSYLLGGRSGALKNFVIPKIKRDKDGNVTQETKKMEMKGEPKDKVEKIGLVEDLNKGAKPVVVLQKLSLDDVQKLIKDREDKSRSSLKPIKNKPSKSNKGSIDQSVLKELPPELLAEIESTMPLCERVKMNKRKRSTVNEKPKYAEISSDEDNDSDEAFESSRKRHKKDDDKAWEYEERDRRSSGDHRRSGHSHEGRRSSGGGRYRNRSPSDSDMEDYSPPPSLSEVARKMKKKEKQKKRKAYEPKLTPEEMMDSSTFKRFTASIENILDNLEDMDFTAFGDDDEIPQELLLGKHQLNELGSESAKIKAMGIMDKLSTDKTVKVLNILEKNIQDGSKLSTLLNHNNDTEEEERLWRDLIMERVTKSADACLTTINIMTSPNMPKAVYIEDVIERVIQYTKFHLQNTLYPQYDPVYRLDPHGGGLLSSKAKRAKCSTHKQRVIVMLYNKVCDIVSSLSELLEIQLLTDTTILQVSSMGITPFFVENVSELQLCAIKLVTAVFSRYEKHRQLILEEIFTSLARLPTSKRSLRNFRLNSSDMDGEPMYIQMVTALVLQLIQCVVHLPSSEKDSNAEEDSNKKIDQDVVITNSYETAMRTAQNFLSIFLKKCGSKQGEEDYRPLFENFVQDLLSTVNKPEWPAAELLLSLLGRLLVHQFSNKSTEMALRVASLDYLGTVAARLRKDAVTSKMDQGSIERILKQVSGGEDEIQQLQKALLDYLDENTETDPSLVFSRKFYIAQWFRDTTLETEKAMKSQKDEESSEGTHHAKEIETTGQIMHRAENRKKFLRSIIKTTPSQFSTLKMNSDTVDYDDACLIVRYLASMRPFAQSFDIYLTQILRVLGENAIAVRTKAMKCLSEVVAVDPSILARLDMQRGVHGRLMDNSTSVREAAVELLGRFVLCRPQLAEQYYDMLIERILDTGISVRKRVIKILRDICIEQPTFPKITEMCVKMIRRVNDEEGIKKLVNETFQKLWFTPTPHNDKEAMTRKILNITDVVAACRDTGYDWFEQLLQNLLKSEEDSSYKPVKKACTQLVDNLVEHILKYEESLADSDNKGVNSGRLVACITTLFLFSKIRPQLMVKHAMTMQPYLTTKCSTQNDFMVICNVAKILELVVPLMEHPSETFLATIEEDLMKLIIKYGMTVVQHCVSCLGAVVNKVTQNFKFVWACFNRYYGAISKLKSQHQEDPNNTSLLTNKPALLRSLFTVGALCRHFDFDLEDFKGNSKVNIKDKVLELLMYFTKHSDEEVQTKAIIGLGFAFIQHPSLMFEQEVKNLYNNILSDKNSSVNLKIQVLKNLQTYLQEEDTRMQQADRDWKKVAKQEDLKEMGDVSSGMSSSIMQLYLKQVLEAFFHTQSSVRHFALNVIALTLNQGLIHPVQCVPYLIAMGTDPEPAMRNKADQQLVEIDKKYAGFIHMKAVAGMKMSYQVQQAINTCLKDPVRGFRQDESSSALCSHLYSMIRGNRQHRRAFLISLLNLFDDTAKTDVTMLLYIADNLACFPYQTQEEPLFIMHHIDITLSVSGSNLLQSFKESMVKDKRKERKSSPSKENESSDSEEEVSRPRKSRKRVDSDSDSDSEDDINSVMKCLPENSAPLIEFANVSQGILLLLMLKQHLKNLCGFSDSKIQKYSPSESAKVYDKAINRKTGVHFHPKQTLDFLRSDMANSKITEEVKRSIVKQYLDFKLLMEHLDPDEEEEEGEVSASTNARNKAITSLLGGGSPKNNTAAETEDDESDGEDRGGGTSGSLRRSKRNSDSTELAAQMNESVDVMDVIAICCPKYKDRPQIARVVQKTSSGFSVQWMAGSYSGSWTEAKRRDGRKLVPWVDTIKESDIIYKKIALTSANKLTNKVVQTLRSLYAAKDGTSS
# [4] = molecular target: NIPBL-MAU2 (human) (UniProt Q6KC79+Q9Y6X3); test: mass photometry; details: typically 150 nM protein + 150 nM DNA, then diluted (10-fold for NIPBL), phosphate buffer (HEPES for MC604 repeat), 50 mM NaCl for ATP …
# Sequence of NIPBL-MAU2 (human) (Q6KC79 whole entry, chain 1 of 2): as the sequence (Q6KC79 whole entry) above
# Sequence of NIPBL-MAU2 (human) (Q9Y6X3 whole entry, chain 2 of 2): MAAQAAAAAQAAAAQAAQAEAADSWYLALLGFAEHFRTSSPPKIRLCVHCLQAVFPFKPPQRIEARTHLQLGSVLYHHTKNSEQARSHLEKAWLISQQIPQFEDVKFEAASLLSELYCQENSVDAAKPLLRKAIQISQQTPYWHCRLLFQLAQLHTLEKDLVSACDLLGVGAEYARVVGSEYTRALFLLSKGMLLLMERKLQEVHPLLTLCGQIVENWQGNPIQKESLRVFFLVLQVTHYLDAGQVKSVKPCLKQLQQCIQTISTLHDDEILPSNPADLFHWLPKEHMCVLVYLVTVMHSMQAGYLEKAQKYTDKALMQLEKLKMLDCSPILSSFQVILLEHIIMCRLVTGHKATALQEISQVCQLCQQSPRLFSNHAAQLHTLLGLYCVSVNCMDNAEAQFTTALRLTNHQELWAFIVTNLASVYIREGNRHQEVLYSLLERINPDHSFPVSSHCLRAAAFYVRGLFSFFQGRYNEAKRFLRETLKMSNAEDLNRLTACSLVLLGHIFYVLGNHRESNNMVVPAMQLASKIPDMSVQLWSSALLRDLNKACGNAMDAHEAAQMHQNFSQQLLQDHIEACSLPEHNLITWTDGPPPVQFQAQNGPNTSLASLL
# [5] = molecular target: SMC1/SMC3/SCC1 cohesin Trimer (UniProt Q14683); test: mass photometry; in solution; two components mixed and equilibrated: 150 nM cohesin Trimer sample with 150 nM NIPBL, or with 150 nM or 80 nM STAG1 (total protein concentrations); KD from individual mass distributions; ATP is said not to affect these 1:1 interactions
Substance,Kd [1] [µM],Kd [2] [µM],Kd [3] [µM],Kd [4] [µM],Kd [5] [µM]
CATATGTGCAGTCCCCCCATAAAAAAACCCGCCGAAGCGGGTTTTTACGTTATTTGCGGATTTTAATTAACTAGTTCTAGAGCTCACGTGCAGCTGTCGACGGTACCTGCAGGCCGGCCAGTACTGGGCCCCAACAGATAAAACGAAAGGCCCAGTCTTTCGACTGAGCCTTTCGTTTTATTGGGCCCCCTTGGTCAAATTGGGTATACCCATTTGGGCCTGGTCTGGCCGGCATGGCGCATTACAGCGGTACGCAATTTAAATGCGCCTAGCGCATTTTCCCGACCTTAATGCGCCTCGCG (double strand) [MC302 supercoiled minicircle],0.169,1.35,< 0.01,0.0122,
"NIPBL, Q6KC79 1-2804",,,,,0.02
